The values that follow come from PMC6925226.

The target in assay [1] is HML2 CA^rec C-terminal domain (CA^rec-CTD, P156-Q246) (human endogenous retrovirus HML2 (HERV-K), consensus). The assay can be described thus: AUC; sedimentation equilibrium, 20 mM Tris-HCl pH 8, 150 mM NaCl, 0.5 mM TCEP; 50-200 µM protein, three speeds; global fit to a monomer-dimer equilibrium (monomer to dimer); MSTAR analysis at 200 µM.
The target is the same in assay [2]. Kind of assay: solution NMR structure (inter-molecular filtered NOEs); 298 K, 20 mM Tris-HCl, 50 mM NaCl, 0.5 mM TCEP, pH 7.0; asymmetrically labelled dimer from equimolar unlabelled and 13C/15N-labelled CA^rec-CTD, 2 mM total protein.
The target in assay [3] is HML2 CA^rec (consensus HML2 capsid protein, P1-Q246) (human endogenous retrovirus HML2 (HERV-K), consensus). The assay can be described thus: cryo-EM structure; single-particle reconstruction of particles assembled in vitro at 1.4 M NaCl, 10 mg/mL, 4 °C, 1 h; T = 1, D5, D6 and T = 3 shells.

“And” between values parts separate entries of the source, which are not always exact repeats. Equal entries are not always repeated.

For orientation: stoichiometry N means the number of molecules, sites or subunits per partner or assembly. Substance “HML2 CA^rec C-terminal domain (CA^rec-CTD, P156-Q246) (domain or fragment)” returned a Ka in assay [1] of 3600 M⁻¹. The same substance returned a stoichiometry N in assay [2] of 2.
For “HML2 CA^rec (consensus HML2 capsid protein, P1-Q246) (natural protein)”, the stoichiometry N in assay [3] was 5 and 6.
